The values below come from patent publication US20260008803A1.

Test [1] addresses FcγRIIIa (UniProt P08637). In words: SPR (Biacore T200, single cycle kinetics, 25 C); antibody captured by anti-human Fab, FcγRIIIa as analyte; 1:1 Langmuir fit.
The target in test [2] is FcγRIIIa (UniProt P08637). In words: SPR; fold improvement in binding avidity, commercial rituximab as the reference.
Test [3] has as its target FcγRIIIa (UniProt P08637). Description: SPR; fold improvement in binding avidity against commercial rituximab. For orientation: In SPR one partner is held on a chip, and binding of the other changes the refractive index at the surface.

FcγRIIIa, sequence (P08637 17-208 limits assumed): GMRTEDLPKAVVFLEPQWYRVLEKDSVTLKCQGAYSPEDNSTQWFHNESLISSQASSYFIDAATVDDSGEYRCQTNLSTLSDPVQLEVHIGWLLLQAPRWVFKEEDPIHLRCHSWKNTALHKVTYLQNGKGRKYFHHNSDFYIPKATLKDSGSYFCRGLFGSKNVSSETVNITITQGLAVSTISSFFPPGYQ

In test [1], “Rituximab (commercial sample; Rituxan, Roche) (antibody)” returned a Kd of 306 nM, a koff of 0.0705 s⁻¹ and a kon of 231000 M⁻¹ s⁻¹. In test [2], this substance came in with a Fold of 1 fold.

In test [1], “Rituximab IgG1 homogeneous glycoform with α2,6-linked 3F^ax-Neu5Ac-terminated biantennary N-glycan (without core fucose) (antibody)” registered a Kd of 8.18 nM, a koff of 0.002 s⁻¹ and a kon of 244000 M⁻¹ s⁻¹. This substance also returned a Fold in test [3] of 37.4 fold.

“Rituximab IgG1 homogeneous glycoform with α2,6-linked Neu5Ac-terminated biantennary N-glycan (G2S2, without core fucose) (antibody)”: in test [1], the equilibrium dissociation constant (Kd) came out at 7.67 nM, the koff came out at 0.00206 s⁻¹ and the kon came to 268000 M⁻¹ s⁻¹. For the same substance, in test [3], the Fold turned out to be 39.9 fold.

For orientation: Kd means a measure of binding affinity in units of concentration. A higher Kd goes with lower affinity. In general, koff refers to a measure of how fast the partners let go of each other. Lower therefore signals slow dissociation. As a reminder, the kon is a measure of how fast the partners come together. A higher kon goes with faster complex formation.
